Measurements taken from patent publication US20200247894A1 (Regeneron, published 2020).
Positions count from the first letter of the chain named.

T1: Macaca fascicularis IL2Rγ extracellular domain expressed with a C-terminal myc-myc-hexahistidine tag (Macaca fascicularis)
T1 construct: also called mfIL-2Rg-MMH; mfIL-2RG-MMH
T1 chain: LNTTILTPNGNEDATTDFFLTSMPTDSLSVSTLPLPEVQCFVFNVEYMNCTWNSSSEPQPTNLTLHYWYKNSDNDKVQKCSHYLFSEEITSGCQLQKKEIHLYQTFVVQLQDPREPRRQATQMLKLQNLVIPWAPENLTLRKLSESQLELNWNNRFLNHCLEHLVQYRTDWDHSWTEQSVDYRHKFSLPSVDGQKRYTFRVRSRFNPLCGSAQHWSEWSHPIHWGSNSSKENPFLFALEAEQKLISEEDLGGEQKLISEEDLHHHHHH

T2: Human IL2Rγ extracellular domain expressed with a C-terminal myc-myc-hexahistidine tag (human)
T2 construct: also called hIL-2Rg-MMH; hIL-2RG-MMH
T2 chain: T1 chain with A14T, T16A, S22T, R141H, S228T

B1: H4H12858P (antibody, human IgG4 S228P, kappa, V domains shown)
VH: EVQLVESGGDLVQPGGSLRLSCTASGFIFRNYAMNWVRQAPGKGLEWLSGILGSNDNTYYVDSVKGRFTISRDNSRNTLYLQMNSLRAEDSAVYYCAKGDAGGFDYWGQGTLVTVSS
VL: DVVMTQSPLSLPVILGQPASISCRSSQSLVSSDGNTYLNWFQQRPGQSPRRLIYKVSNRDSGVPDRFSGSGSGTDFTLKISRVEAEDVGAYYCMQGSYWPPTFGQGTKLEIKR
notes: anti-IL2Rgamma mAb expressed with human IgG4 Fc; also called REGN9433
B2: H4H13538P (antibody, human IgG4 S228P, kappa, V domains shown)
VH: EVQLVESGGGLVQPGGSLGLSCAASGFTFSNYAMSWVRQAPGKGLEWVSAVSGGGGGTYYADSVKGRFTISRDNSKNTVLLQMNSLRAEDTAVYYCARGRTGGLDYWGPGTLVTVSS
VL: B1 VL with L15F, S31D, F41L, K55E, K79T, A90I, S97T, Y98R, Q105G, L109V
notes: anti-IL2Rgamma mAb expressed with human IgG4 Fc
B3: H4H12871P (antibody, human IgG4 S228P, kappa, V domains shown)
VH: QVQLQESGPGLVKPSQTLSLTCTVSGGSITSGGYYWSWIRQYPGQGLEWIGYIYYSGKTYYNPSFTSRITISVDTSKKQFSLKMSSVTAADTAVYYCARAGFTSSNGWFDPWGQGTLVTVSS
VL: DIQMTQSPSSLSASVGDRVTITCRASQNIRSYLNWYQQKPGKAPKLLIYSASSLQSGVPSRFSGSGSGTDFTLTISSLQPEDFPTYYCQQTYSSPWTFGPGTKVEIKR
notes: anti-IL2Rgamma mAb expressed with human IgG4 Fc; also called REGN9434
B4: H4H12874P (antibody, human IgG4 S228P, kappa, V domains shown)
VH: QVQLVESGGGVVQPGRSLRLSCAASGFNFRNFGMHWVRQAPGKGLEWVAGILYDGSSKYYADSVKDRFTISRDNSKNTLFLQMNSLRAEDTAMYYCAKEEDTAMVPFDSWGPGTLVTVSS
VL: DIQLTQSPSFLSASVGDRVTITCWASQGISSYLAWYQQKPGKAPTLLIYAASTLQSGVPSRFSGSGSGTEFTLTISSLQPEDFASYYCQQLKSYPLTFGGGTKVEIKR
notes: as for B2
B5: H4H12863P (antibody, human IgG4 S228P, kappa, V domains shown)
VH: QVQLVESGGGVVQPGRSLRLSCTASGFTFRSYDMYWVRQAPGKGLEWVSVITYDGNNKYYADSVKGRFTISRDNSKNTLFLQMSSLRPEDTAVYYCAKRGLIWVGESFDYWGQGTLVTVSS
VL: DIQMTQSPSTLSASVGDRVTITCRASQSINSWLAWYQQKPGKAPNLLIYKASSLESGVPSRFSGSGSGTEFTLTISSLQPDDFATYYCQQYKSYSWTFGQGTKVEIKR
notes: as for B2
B6: H4H12922P2 (antibody, human IgG4 S228P, kappa, V domains shown)
VH: QVQLVESGGGVVKPGGSLRLSCAASGFTFSNSGIHWVRQAPGKGLEWVALISYAGSNKYYADSVKGRFTISRDNSKNTLSLQMNSLRAEDTAVYYCAKEVWTGTYDSFDMWGRGTMVTVSS
VL: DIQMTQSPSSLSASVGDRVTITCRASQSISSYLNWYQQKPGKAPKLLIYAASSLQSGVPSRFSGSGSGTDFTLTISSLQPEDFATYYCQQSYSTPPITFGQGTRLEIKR
notes: anti-IL2Rgamma mAb expressed with human IgG4 Fc; also called REGN7256
B7: H4H12859P (antibody, human IgG4 S228P, kappa, V domains shown)
VH: QVQLVQSGAEVKKPGASVRVSCKASGYTFTDYDIHWVRQAPGHGLEWMGWINPNSGGTNYAQKFQGRVTMTRDTSISTVYMDLSRLRSDDTAVYYCARADYSSSYYYYGMDVWGQGTTVTVSS
VL: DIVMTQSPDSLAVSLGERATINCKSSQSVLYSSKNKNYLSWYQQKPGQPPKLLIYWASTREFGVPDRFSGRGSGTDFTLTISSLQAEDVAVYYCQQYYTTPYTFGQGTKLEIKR
notes: as for B2
B8: H4H12913P2 (antibody, human IgG4 S228P, kappa, V domains shown)
VH: EVQLVESGGGVVRPGGSLRLSCAASGFTFDDYGMSWVRQAPGKGLEWISSINRNGGSADYADSVKGRFTISRDNAKNSLFLQMSSLRAEDTALYHCASGEFRFDYWGQGTLVTVSS
VL: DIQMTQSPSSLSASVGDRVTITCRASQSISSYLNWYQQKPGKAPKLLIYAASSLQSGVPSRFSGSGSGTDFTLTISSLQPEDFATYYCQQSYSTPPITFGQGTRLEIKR
notes: as for B2
B9: H4H12927P2 (antibody, human IgG4 S228P, kappa, V domains shown)
VH: EVQLVESGGGVVRPGGSLRLSCATSGFTFDDYGMSWVRQVPGKGLEWVSSVNRNGGTTDYADSVKGRFTISRDNAKRSLFLQMNSLRAEDTALYHCATGELFFDYWGQGTLVTVSS
VL: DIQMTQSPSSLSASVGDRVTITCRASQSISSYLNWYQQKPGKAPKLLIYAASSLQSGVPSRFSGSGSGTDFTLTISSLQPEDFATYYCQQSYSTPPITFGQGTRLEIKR
notes: as for B2

Legend:
[1] = molecular target: T1, Macaca fascicularis IL2Rγ extracellular …; test: SPR, captured mAb, 25C, dissociation pH 6.0
Method: (§1) The dissociation rate constant (kd) for binding of IL-2Rγ reagents to purified anti-IL2Rγ monoclonal antibodies was determined using a real-time surface plasmon resonance based Biacore 4000 biosensor platform. […] The CM5 Biacore sensor surface derivatized by amine coupling with monoclonal mouse anti-human Fc antibody (GE, Catalog # BR-1008-39) was used to capture anti-IL2Rγ monoclonal antibodies expressed with human IgG4 Fc. All the IL2Rγ reagents were expressed with a C-terminal myc-myc-hexahistidine tag (subsequently referred to with a -MMH suffix). […] The dissociation of bound IL-2Rg-MMH was performed in PBS-T-pH7.4 or PBS-T-pH6.0 running buffers for 6 minutes.
(§2) Dissociation rate constants (kd) in two running buffers were determined by fitting the real-time binding sensorgrams to a 1:1 binding model using Scrubber 2.0c curve-fitting software. Values of dissociation rate for […] mAb binding to hIL-2RG-MMH and mfIL-2RG-MMH at 25° C. and 37° C. in PBS-T-pH7.4 and PBS-T-pH6.0 is shown in Table 2-1 through Table 2-8.

[2] = molecular target: T2, Human IL2Rγ extracellular domain …; test: SPR, captured mAb, 25C, dissociation pH 6.0
Method: as §1, §2

[3] = molecular target: T2, Human IL2Rγ extracellular domain …; test: SPR, captured mAb, 37C, dissociation pH 6.0
Method: as §1, §2

[4] = molecular target: T2, Human IL2Rγ extracellular domain …; test: SPR, captured mAb, 37C, dissociation pH 7.4
Method: as §1, §2

[5] = molecular target: T1, Macaca fascicularis IL2Rγ extracellular …; test: SPR, captured mAb, 25C, dissociation pH 7.4
Method: as §1, §2

[6] = molecular target: T2, Human IL2Rγ extracellular domain …; test: SPR, captured mAb, 25C, dissociation pH 7.4
Method: as §1, §2

Row | Binder | 100 nM Ag Bound (RU) [1] | koff [1] | t1/2 [1] | 100 nM Ag Bound (RU) [2] | koff [2] | t1/2 [2] | 100 nM Ag Bound (RU) [3] | koff [3] | t1/2 [3] | 100 nM Ag Bound (RU) [4] | koff [4] | t1/2 [4] | 100 nM Ag Bound (RU) [5] | koff [5] | t1/2 [5] | 100 nM Ag Bound (RU) [6] | koff [6] | t1/2 [6]
1 | B1 | 100 RU | 0.000385 s⁻¹ | 30 min | 103 RU | 0.000377 s⁻¹ | 31 min | 136 RU | 0.00172 s⁻¹ | 7 min | 141 RU | 0.000661 s⁻¹ | 17 min | 111 RU | 0.000171 s⁻¹ | 68 min | 111 RU | 0.000184 s⁻¹ | 63 min
2 | B2 | 96 RU | 0.000439 s⁻¹ | 26 min | 93 RU | 0.000417 s⁻¹ | 28 min | 120 RU | 0.00148 s⁻¹ | 8 min | 110 RU | 0.000599 s⁻¹ | 19 min | 94 RU | 0.000179 s⁻¹ | 65 min | 82 RU | 0.000139 s⁻¹ | 83 min
3 | B3 | 128 RU | 0.00116 s⁻¹ | 10 min | 129 RU | 0.00136 s⁻¹ | 8 min | 141 RU | 0.00246 s⁻¹ | 5 min | 139 RU | 0.00111 s⁻¹ | 10 min | 125 RU | 0.000481 s⁻¹ | 24 min | 121 RU | 0.000596 s⁻¹ | 19 min
4 | B4 | 64 RU | 0.000729 s⁻¹ | 16 min | 66 RU | 0.000724 s⁻¹ | 16 min | 91 RU | 0.00261 s⁻¹ | 4 min | 99 RU | 0.000572 s⁻¹ | 20 min | 73 RU | 0.000164 s⁻¹ | 70 min | 72 RU | 0.000162 s⁻¹ | 71 min
5 | B5 | 118 RU | 0.000761 s⁻¹ | 15 min | 116 RU | 0.000762 s⁻¹ | 15 min | 145 RU | 0.00226 s⁻¹ | 5 min | 176 RU | 0.000672 s⁻¹ | 17 min | 155 RU | 0.000194 s⁻¹ | 59 min | 151 RU | 0.000172 s⁻¹ | 67 min
6 | B6 | 129 RU | 0.00111 s⁻¹ | 10 min | 126 RU | 0.00118 s⁻¹ | 10 min | 147 RU | 0.00374 s⁻¹ | 3 min | 184 RU | 0.000773 s⁻¹ | 15 min | 168 RU | 0.000191 s⁻¹ | 61 min | 164 RU | 0.000204 s⁻¹ | 57 min
7 | B7 | 37 RU | 0.00413 s⁻¹ | 2.8 min | 39 RU | 0.00503 s⁻¹ | 2.3 min | 36 RU | 0.0132 s⁻¹ | 0.9 min | 55 RU | 0.00454 s⁻¹ | 2.5 min | 51 RU | 0.000871 s⁻¹ | 13 min | 54 RU | 0.00111 s⁻¹ | 10 min
8 | B8 | 44 RU | 0.000992 s⁻¹ | 12 min | 43 RU | 0.00105 s⁻¹ | 11 min | 59 RU | 0.00383 s⁻¹ | 3 min | 82 RU | 0.00116 s⁻¹ | 10 min | 57 RU | 0.000272 s⁻¹ | 43 min | 56 RU | 0.000303 s⁻¹ | 38 min
9 | B9 | 30 RU | 0.0032 s⁻¹ | 3.6 min | 30 RU | 0.00499 s⁻¹ | 2.3 min | 19 RU | 0.0239 s⁻¹ | 0.5 min | 23 RU | 0.00982 s⁻¹ | 1.2 min | 38 RU | 0.000984 s⁻¹ | 12 min | 36 RU | 0.00163 s⁻¹ | 7 min
